Article PMC12145851

Experiments:
[1] = molecular target: phospholamban (PLN) (mouse (endogenous in mouse heart)) (UniProt P61014); assay: co-IP; PLN antibody immunoprecipitation from unfixed mouse cardiac tissue lysate (IP group), immunoblot of co-precipitated proteins
[2] = molecular target: phospholamban (PLN) (mouse (endogenous in mouse heart)) (UniProt P61014); assay: co-IP; PLN antibody immunoprecipitation from 3 % glyoxal-fixed (cross-linked) mouse cardiac tissue lysate (xIP group), immunoblot of co-precipitated proteins

Chain of UniProt P61014 (P61014 whole entry): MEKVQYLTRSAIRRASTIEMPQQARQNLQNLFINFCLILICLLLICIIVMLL

Substance: integrin beta-1 (ITGB1) (from UniProt P09055 21-798) (natural protein)
- signal of co-precipitated protein (relative, %) [1]: 100%
- signal of co-precipitated protein (relative, %) [2]: 282%
